Reference: patent US20100286042A1

Target: FGFR2b
Assay: cell-based or functional assay

- cell proliferation promoting activity on BaF3 cells forced to express the receptor (in the presence of heparin), relative to FGF1 (fold of the activity of FGF1): 0.001
Substance: basic fibroblast growth factor (FGF2) (from UniProt P09038 143-288) (ligand)
